Test results from the Human Domainome abundance scans (Beltran et al. 2025).

B1: Probable E3 ubiquitin-protein ligase MID2, residues 191 to 235; numbered along this chain, Q9UJV3 (parent)
chain: RGITCLDHENEKVNMYCVSDDQLICALCKLVGRHRDHQVASLNDR

Variants of: B1
Experiment: abundance fitness (aPCA) (normalised: wild type 0, dead -1); higher = more abundant; growth selection in yeast, the domain comes from the species named
Conditions: Homo sapiens

Abundance fitness: each site, then its substitutions
S19: V -0.032 | A 0.107 | Q 0.097 | Y -0.296 | W -0.211 | E 0.07 | T 0.049 | P -0.047 | R -0.041 | K -0.049 | N -0.092 | M -0.067 | H 0.093 | D -0.18 | F -0.146 | G -0.005 | L -0.08
V31: S 0.06 | Y -0.117 | H 0.108 | D -0.022 | T 0.131 | F -0.046 | W -0.428 | N 0.184 | Q 0.152 | P 0.014 | L -0.122 | M -0.104 | I -0.091 | E 0.149 | K 0.131 | G 0.107
L27: K 0.517 | E 0.144 | G -0.058 | H -0.03 | S 0.052 | D -0.029 | T -0.144 | I -0.466 | Q 0.263 | M -0.012 | W -0.145 | N 0.311 | Y -0.263 | V 0.039 | P -0.215 | F 0.099
L30: Q 0.109 | D 0.183 | N 0.078 | G 0.13 | K 0.348 | V 0.003 | E 0.096 | M 0.003 | F -0.022 | A 0.159 | T 0.089 | Y -0.071 | S 0.189 | W -0.095 | H -0.012 | C 0.026 | P -0.136
G32: W -0.954 | V -0.474 | R -0.537 | D -0.337 | Q -0.472 | A -0.518 | C -0.589 | I -0.459 | S -0.408 | H -0.185 | T -0.339 | L -0.684 | E -0.248 | M -0.899 | K -0.316
D21: K 0.011 | P -0.819 | N 0.031 | I -0.951 | H -0.283 | T -0.163 | A -0.081 | Q -0.132 | S -0.088 | V -0.585 | L -0.526 | E -0.056 | M -0.316 | Y -0.527
Y16: Q 0.236 | M -0.321 | G 0.024 | W -0.039 | L -0.127 | N -0.251 | V 0.023 | R 0.183 | S -0.178 | T -0.392 | H -0.114 | K 0.54 | P -0.065
R35: H -0.471 | M -0.024 | E 0.09 | G -0.002 | K 0.019 | D -0.242 | Q -0.11 | C -0.126 | A 0.064 | P -0.195 | F -0.529 | V -0.05 | I 0.303 | W -0.602 | L -0.321 | T -0.195
R33: L -0.026 | C -0.28 | Y -0.088 | I -0.106 | F -0.764 | Q -0.006 | K 0.084 | N -0.127 | E -0.022 | W -0.39 | P 0.038 | V -0.073 | S -0.112 | T -0.024 | M -0.046
C28: R -1.05 | W -0.997 | Y -1.14 | P -0.439 | E -0.897 | D -0.469 | A -0.805 | T -0.541 | G -0.58 | M -0.942 | K -0.906 | V -1.11 | S -0.678 | Q -0.505
C25: D -0.834 | Q -1.02 | R -1.2 | F -0.468 | E -0.786 | K -0.951 | P -0.417 | G -0.805 | L -1.34 | V -1.03 | W -1.92 | T -0.526 | A -1.12 | S -1.03
